This data set addresses α1antichymotrypsin (ACT) (UniProt P01011).

Chain of α1antichymotrypsin (ACT) (P01011 24-423): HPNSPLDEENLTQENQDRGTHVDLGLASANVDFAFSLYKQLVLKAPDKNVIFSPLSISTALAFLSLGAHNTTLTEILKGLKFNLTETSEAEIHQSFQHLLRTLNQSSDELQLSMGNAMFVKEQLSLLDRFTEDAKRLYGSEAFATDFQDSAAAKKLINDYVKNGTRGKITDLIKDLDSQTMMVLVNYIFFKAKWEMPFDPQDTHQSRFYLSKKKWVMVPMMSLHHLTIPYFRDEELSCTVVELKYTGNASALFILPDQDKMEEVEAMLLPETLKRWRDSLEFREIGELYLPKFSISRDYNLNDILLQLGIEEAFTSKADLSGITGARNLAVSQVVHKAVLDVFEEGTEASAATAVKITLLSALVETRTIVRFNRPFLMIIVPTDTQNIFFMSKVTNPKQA

As to “prostate-specific antigen (PSA), mature form”, the “cleavage of ACT (HIC-HPLC peak 1)” value is “Peak 1 is inactive ACT which has been cleaved by PSA”.

These data come from US6423503.
